We go through one substance from paper doi:10.1101/2023.04.30.538836.

This experiment concerns the target PlsB from Themomonas haemolytica (Themomonas haemolytica). Description: cryo-EM structure.

For the substance “PlsB from Themomonas haemolytica (enzyme)”, the stoichiometry N (in general, a count of units in the complex or per binding partner) stood at 2.
